Experimental findings from US9056102B2, “VEGF-activated trail ligands” (The Regents of the University of California, priority 2005, dated 2015) are described below.

Entries after “also recorded” stand apart in the source; their conditions may differ.

For series [1], the system named is U87MG human glioblastoma cells. The series can be described thus: Potentiation of R2FasL by chemotherapeutic agents, resazurin cell viability assay. Format: cell-based. The settings on record: 72 hours drug (Bis VIII 1 μM, camptothecin 20 nM, etoposide 5 μM), then R2FasL 10 μL/well for 40 hours. (In general: Alamar Blue is a resazurin reagent that responds to reducing activity.)
Method: U87MG human glioblastoma cells were plated in 96-well plates in 100 μL of complete medium with 10% fetal calf serum at 25,000 cells/well. Forty-eight hours later cells were treated with either bisindolylmaleimide VIII (Bis VIII, final concentration 1 μM), camptothecin (final concentration 20 nM), etoposide (final concentration 5 μM), or DMSO vehicle (1 μL/well). Bis VIII, camptothecin, and etoposide (all from Biomol) were dissolved in DMSO and added at 1 μL/well. After 72 hours of drug exposure, cells were treated with FLAG antibody affinity-purified R2FasL solution (10 μL/well), and incubated for an additional 40 hours. Cell viability and cytotoxicity were assayed using the resazurin assay and the LDG release assay, respectively, as described above.

Series [2] concerns T-47D human breast cancer cells. As to the kind of experiment: LDH release cytotoxicity assay in breast cancer cells. Format: cell-based. The protocol: Apoptosis and cytotoxicity was assayed by three assays: cell counting, FACS analysis of Annexin V positive cells, and LDH (lactate dehydrogenase) release. For cell counting of Jurkat cells, 100 uL of cell suspension was mixed with an equal volume of Trypan blue stain (0.4%), and kept at room temperature for 2 minutes. Live cells were counted using a hemocytometer in triplicate. Mean number of cells/visual field and SEM were calculated using InStat statistical software. For FACS analysis, the Annexin-V-Fluos kit from Roche was used according to the manufacturer's protocol. Briefly, after treatment with FlkFasL or control conditioned medium±VEGF-165 (2 nM, from Peprotech), Jurkat cells were pelleted and resuspended in 100 μL of Annexin-V-Fluos labeling solution (FITC-Annexin V plus propidium iodide) for 15 minutes at room temperature. FACS analysis was performed on a Becton Dickinson FACSCalibur™ using CellQuest Software, with gating to distinguish Annexin V-positive (apoptotic) versus negative cells, and propidium iodide-positive (i.e. necrotic) versus negative cells. The percent of the cell population that was apototic (Annexin-V-positive and propidium iodide-negative) was determined. […] 25 μL of supernatant in triplicate was mixed with LDH detection reagent, and LDH activity quantified by measuring absorbance at 492 nm. Mean and SEM was calculated using InStat statistical software. […]
A general note: LDH leaks from cells whose membrane has failed.

Series [3] deals with Jurkat cells. As to the kind of experiment: Induction of apoptosis by FACS analysis of Annexin V-positive/propidium iodide-negative cells. Format: cell-based, human. Here is the method: (§1) Apoptosis and cytotoxicity was assayed by three assays: cell counting, FACS analysis of Annexin V positive cells, and LDH (lactate dehydrogenase) release. For cell counting of Jurkat cells, 100 uL of cell suspension was mixed with an equal volume of Trypan blue stain (0.4%), and kept at room temperature for 2 minutes. Live cells were counted using a hemocytometer in triplicate. Mean number of cells/visual field and SEM were calculated using InStat statistical software. For FACS analysis, the Annexin-V-Fluos kit from Roche was used according to the manufacturer's protocol. […] The percent of the cell population that was apototic (Annexin-V-positive and propidium iodide-negative) was determined. […] 25 μL of supernatant in triplicate was mixed with LDH detection reagent, and LDH activity quantified by measuring absorbance at 492 nm. Mean and SEM was calculated using InStat statistical software.
Jurkat cells were plated in 24-well plates (500,000 cells in 500 μl/well) and were treated with either 1 μL/well or 5 μL/well of conditioned medium obtained from Cos-7 cells transfected either with control plasmid pSV/Neo or plasmid pBJ/FlkFasL. […] Induction of apoptosis was assessed by FACS analysis of FITC-Annexin V-positive/propidium-iodide negative cells.
(In flow cytometry, cells or beads pass a laser one at a time.)

Series [4] concerns T-47D human breast cancer cells. The series can be described thus: Cell death in breast cancer cells, photographed 24 hours after treatment. The settings on record: 25 μL conditioned medium plus 2 nM VEGF-165, 24 hours. The series is classed as cell-based. Here is the method:
T-47D human breast cancer cells were plated in 24-well plates (500,000 cells in 500 μl/well) and grown to confluence. Cells were treated with 25 μL/well of conditioned medium from Cos-7 cells transfected either with control plasmid pSV/Neo or plasmid FlkFasL. Cells were also treated with 2 nM VEGF-165 or without. Cells were photographed 24 hours after treatment.

Series [5] deals with Jurkat cells. As to the kind of experiment: Jurkat cell killing, viable cell counting after trypan blue staining. The series is classed as cell-based, human. The protocol:
as §1
Jurkat cells were plated in 24-well plates (500,000 cells in 500 μl/well) and were treated with increasing volumes of conditioned medium obtained from Cos-7 cells transfected either with either control plasmid pSV/Neo or plasmid pBJ/FlkFasL. […] Thirty-two hours later viable cells were counted after trypan blue staining. […]

Series [6] concerns Jurkat E6.1 human T cells. As to the kind of experiment: Jurkat cell viability, resazurin (AlamarBlue) assay. Format: cell-based. Here is the method: Conditioned medium (0.001, 0.01, 0.1, 1, or 10 μL) from Cos7 cells transfected with pFLAG/R1[D2]FasL vector was added in the absence or presence of rhVEGF-165 (final concentration 2 nM). Twenty-two hours later cell viability was assayed using the resazurin assay (AlamarBlue reagent from BioSource). Conversion of AlamarBlue substrate to product by viable cells was determined by adding 20 μL of AlamarBlue to each well and measuring absorbance at 540 nm and […]. Calculation of % conversion of substrate to product was performed according to the manufacturer's protocol.
To investigate which growth factors activate R1[D2]FasL the following experiment was performed. […] All growth factors were used at a final concentration of 10 nM, and were from Peprotech or R&D Systems. Nineteen hours later cell viability was assayed using the resazurin assay as described above.
In a similar experiment, the concentration of the growth factors tested was varied. […] Conditioned medium from Cos7 cells transfected with either pFLAG/R2FasL vector or empty pFLAG vector was added (1 μL/well), in the absence or presence of rhVEGF-165 or rmVEGF-165 at the final concentrations of 0.001, 0.01, 0.1, 1, and 10 nM. Eighteen hours later cell viability was assayed using the resazurin assay as described herein.
To determine the ED50 for hVEGF-165 on R1[D2]FasL the following experiment was performed. […] Conditioned medium from Cos7 cells transfected with pFLAG/R1[D2]FasL vector was added (2 μL/well), in the absence or presence of rhVEGF-165 at 0, 0.01, 0.1, 1, 10, 100, 1,000, or 10,000 nM. Nineteen hours later cell viability was assayed using the resazurin assay as described above.
In a similar experiment the ED50 for hVEGF-165 on R2FasL was determined. […] Conditioned medium from Cos7 cells transfected with pFLAG/R2FasL vector was added in the volumes indicated, in the absence or presence of rhVEGF-165 at the final concentrations of […], 0.2 and 2 nM. Eighteen hours later cell viability was assayed using the resazurin assay. The ED50 for rhVEGF-165 was between 20 pM and 200 pM (FIG. 21B).

On to `COc1cc([C@@H]2c3cc4c(cc3[C@@H](O[C@@H]3O[C@@H]5CO[C@@H](C)O[C@H]5[C@H](O)[C@H]3O)[C@H]3COC(=O)[C@H]23)OCO4)cc(OC)c1O` [etoposide], for which the “potentiation of R2FasL apoptotic activity (cell viability)” value in series [1] was “Potentiation of R2FasL apoptotic activity”.
Same read-out and setting: the entry for `Cn1cc(C2=C(c3cn(CCCN)c4ccccc34)C(=O)NC2=O)c2ccccc21` [BisVIII, bisindolylmaleimide VIII] is “Potentiation of R2FasL apoptotic activity”.

B1: FlkFasL: Fusion of mouse Flk-1 (VEGFR-2) signal sequence and Ig-like domains 1-3, linker, human FasL amino acids 139-281; SEQ ID NO:22 (protein)
chain: MESKALLAVALWFCVETRAASVGLPGDFLHPPKLSTQKDILTILANTTLQITCRGQRDLDWLWPNAQRDSEERVLVTECGGGDSIFCKTLTIPRVVGNDTGAYKCSYRDVDIASTVYVYVRDYRSPFIASVSDQHGIVYITENKNKTVVIPCRGSISNLNVSLCARYPEKRFVPDGNRISWDSEIGFTLPSYMISYAGMVFCEAKINDETYQSIMYIVVVVGYRIYDVILSPPHEIELSAGEKLVLNCTARTELNVGLDFTWHSPPSKSHHKKIVNRDVKPFPGTVAKMFLSTLTIESVTKSDQGEYTCVASSGRMIKRNRTFVRVHTKPFIAFGSARGTSEKKELRKVAHLTGKSNSRSMPLEWEDTYGIVLLSGVKYKKGGLVINETGLYFVYSKVYFRGQSCNNLPLSHKVYMRNSKYPQDLVMMEGKMMSYCTTGQMWARSSYLGAVFNLTSADHLYVNVSELSLVNFEESQTFFGLYKL
Regarding B1, the “cytotoxicity (LDH release) with exogenous VEGF” value in series [2] (25 μL conditioned medium plus 2 nM VEGF-165, 48 hours) is on record as “drastic increase in cytotoxicity”. The “cytotoxicity (LDH release), endogenous VEGF only” value in series [2] (25 μL conditioned medium, no exogenous VEGF, 48 hours) is given as “induced cytotoxicity”. Besides, in series [3] (1 or 5 μL conditioned medium, with or without 2 nM VEGF-165, 60 minutes), the “induction of apoptosis (Annexin V-positive/propidium iodide-negative cells)” value is reported as “induction of apoptosis by FlkFasL in a VEGF-dependent manner”. In series [3] (conditioned medium in the absence of VEGF), the “induction of apoptosis in the absence of VEGF” value is recorded as “did not increase apoptotic induction”. Besides, the “cell death with exogenous VEGF” value in series [4] is given as “drastic increase in cell death; also recorded: drastically increased cell death”. Also, the “killing of Jurkat cells as function of VEGF amount” value in series [5] (25 μL/well conditioned medium, varying amounts of VEGF-165, 24 hours) is recorded as “dependent on the amount of VEGF”. Also, in series [5] (increasing volumes of Cos-7 conditioned medium, with or without 2 nM VEGF-165, 32 hours), the “killing of Jurkat cells (viable cells per hemocytometer field)” value was “killing of Jurkat cells by FlkFasL in a VEGF-dependent manner”.

B2: R1[D2]FasL: Second domain of human VEGFR1 (amino acids 129 to 230) fused via ARGTS linker to hFasL amino acids 139 to 281 (protein)
chain: MSALLILALVGAAVADYKDDDDKLAAASDTGRPFVEMYSEIPEIIHMTEGRELVIPCRVTSPNITVTLKKFPLDTLIPDGKRIIWDSRKGFIISNATYKEIGLLTCEATVNGHLYKTNYLTHRQTNTIIARGTSEKKELRKVAHLTGKSNSRSMPLEWEDTYGIVLLSGVKYKKGGLVINETGLYFVYSKVYFRGQSCNNLPLSHKVYMRNSKYPQDLVMMEGKMMSYCTTGQMWARSSYLGAVFNLTSADHLYVNVSELSLVNFEESQTFFGLYKL
modifications: FLAG tag, preprotrypsin leader
As for B2, the “induction of apoptosis (cell viability)” value in series [6] (0.001-10 μL conditioned medium, absence or presence of 2 nM rhVEGF-165, 22 hours) is “induces apoptosis in a VEGF-dependent manner”. Besides, in series [6] (2 μL/well conditioned medium, rhVEGF-165, rmVEGF-164, rhVEGF-121, rhVEGF-165/rhPlGF-129 heterodimer, rhPlGF-129, each 10 nM, 19 hours), the “activation by growth factors (cell viability)” value was “activated by all growth factors tested”.
